The target in assay [1] is T1, synMDMX (synthetic MDMX comprising amino acids 24-108 of the full length MDMX protein) (human, UniProt O15151 24-108).
T1 construct: range 24-108; A biotinylated form was the bait in the phage selections; also called MDM4; biotin-synMDMX
T1 sequence (looked up): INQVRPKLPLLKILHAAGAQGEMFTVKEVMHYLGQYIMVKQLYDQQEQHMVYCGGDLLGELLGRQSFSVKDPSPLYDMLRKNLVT
Put plainly: phage display selection, peptide on M13 pIII, biotin-synMDMX as bait.

Assay [2] deals with T2, synMDM2 (synthetic MDM2 comprising amino acids 25-109 of the full length MDM2 protein) (human, UniProt Q00987 25-109).
T2 construct: range 25-109; A biotinylated form (biotin-synMDM2) was the bait in the phage selections; also called biotin-synMDM2
Description: phage display selection, peptide on M13 pIII, biotin-synMDM2 as bait.

The target of assay [3] is T1, synMDMX (synthetic MDMX comprising …). Put plainly: SPR competition, immobilized 15-29p53.

This is an account of results in patent publication US20110183917A1 (UNIVERSITY OF MARYLAND BALTIMORE, published 2011).

T2 sequence (Q00987 25-109 limits assumed): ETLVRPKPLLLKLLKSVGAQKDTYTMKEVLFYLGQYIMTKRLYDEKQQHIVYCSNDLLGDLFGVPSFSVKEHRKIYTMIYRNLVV

B1: L-PMI-2 (peptide)
peptide: DDWFQRVWSPLM
notes: Reported only as a phage clone: the 12-mer was fused through a GlyGlyGlySer spacer to the N-terminus of M13 pIII
Regarding B1, the binding result in assay [1] and in assay [2] was “binds” throughout.
In the case of CYSFDCLWKCLAMGFSSGKCINSKCKC (designed binder, also called L-Stoppin-1) [stoppin-1], the “fold lower affinity than 15-29p53” value in assay [3] was ~4 fold.
